From patent US20230203125A1 come the findings set out here.

The assay addresses CD47 (UniProt Q08722). Description: cell-based or functional assay.
UniProt Q08722, sequence (Q08722 19-323 limits assumed): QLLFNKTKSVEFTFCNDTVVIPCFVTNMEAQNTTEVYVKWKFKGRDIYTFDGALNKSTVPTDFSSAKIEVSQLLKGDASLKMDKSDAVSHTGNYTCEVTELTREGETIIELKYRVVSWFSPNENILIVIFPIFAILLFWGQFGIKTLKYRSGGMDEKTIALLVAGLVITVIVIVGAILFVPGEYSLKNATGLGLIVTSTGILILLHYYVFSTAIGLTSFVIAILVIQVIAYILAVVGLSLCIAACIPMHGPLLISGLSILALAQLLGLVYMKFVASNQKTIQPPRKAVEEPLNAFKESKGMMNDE

With “SIRPγ fusion protein SIRPγ-CD28TM-CD28 (receptor)”, the Specific Lysis (%) of target cells DLD1-CEA, 24 h, effector-target ratio 1:1 worked out at 45.2%.
